{"source": "paper PMC3506661", "target": "BAK (UniProt Q16611)", "experiment": "biotinylated BH3 peptide pull-down from lysate", "details": "reference: wild type, okadaic acid then UV; sites S117"}
{"substance": "BAK (from UniProt Q16611) S117A, okadaic acid then UV", "values": [{"measurement": "binding against the reference", "result": "gained"}]}
